Experimental findings from patent publication US20250066490A1 (PROFOUNDBIO US, published 2025) are described below.

Experiment [1] addresses T1, human CD70 expressed on the cell surface of tumor cell lines (human, UniProt P32970 1-193).
T1 sequence (looked up): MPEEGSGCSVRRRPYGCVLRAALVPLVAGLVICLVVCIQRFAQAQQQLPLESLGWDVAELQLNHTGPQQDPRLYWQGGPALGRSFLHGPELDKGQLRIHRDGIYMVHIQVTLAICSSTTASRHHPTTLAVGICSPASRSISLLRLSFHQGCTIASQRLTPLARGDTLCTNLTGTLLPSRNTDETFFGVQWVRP
Briefly: cell-based or functional assay.

Experiment [2] concerns the target T1, human CD70 expressed on the cell …. The experiment in a line: flow cytometry on 786-O cells. Here is the method: (§1) The lead antibodies were tested for binding to renal carcinoma cells and glioblastoma cells expressing CD70 on the cell surface by flow cytometry. […] U251 cells were cultured with MEM medium containing of 10% FBS and 1% NEAA+1 mM sodium pyruvate. DBTRG-05MG cells were cultured with DMEM medium (Gibco, Cat #C11995500BT) containing of 10% FBS. Each of the lead antibodies and the controls were incubated for 30 mins with the different cell lines (3×10⁵ cells per well) in 0.2 ml FACS buffer (1×PBS with 0.1% BSA) at 4° C. Then, the cells were pelleted, washed, and incubated at 4° C. for 30 mins with 100 μl of 1:200 diluted PE-conjugated anti human Fc (Abcam, Ab98596) in FACS buffer. The cells were pelleted again, washed with PBS, resuspended in FACS buffer and analyzed by flow cytometer (Beckman, CytoFLEX).
(§2) Antibodies 2H8 and 2D2 had slightly higher binding ability to the cell lines than that of antibody 69A7.

For experiment [3] the target is unchanged. Briefly: flow cytometry on DBTRG-05MG cells, PE anti-human Fc, MFI; same fit as Table 6, which prints it in nM. Here is the method: as §1, §2
Experiment [4] shares this target. Briefly: flow cytometry on Caki-1 cells. Here is the method: as §1, §2
Experiment [5] concerns the target T2, CD70 ECD (antigen immobilized on the CM5 chip) (UniProt P32970 39-193).
T2 construct: extracellular domain; also called CD70 antigen
T2 sequence (looked up): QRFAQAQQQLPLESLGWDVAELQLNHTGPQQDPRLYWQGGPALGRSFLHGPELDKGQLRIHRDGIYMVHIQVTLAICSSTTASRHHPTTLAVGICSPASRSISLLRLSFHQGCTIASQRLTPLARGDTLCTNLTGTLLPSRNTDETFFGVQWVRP
Briefly: SPR (Biacore T200), CD70 ECD on CM5 chip; upper end tied to 2A4P0L1 by the KD values of Table 8. Here is the method:
(§3) The immobilization of antigen CD70 ECD was performed at 25° C. with HBS-EP as the running buffer. Sensor chip surface of flow cells 1, 4 were activated by freshly mixed 50 mmol/L N-Hydroxy succinimide (NHS) and 200 mmol/L 1-ethyl-3-(3-dimethylaminopropyl) carbodiimide hydrochloride (EDC) for 420s (10 μL/min). Afterwards, CD70 antigen diluted in 10 mmol/L NaAC (pH 4.5) was injected into flow cell 4 to achieve conjugation of the appropriate Response Unit, while flow cell 1 was set as a blank. After the amine coupling reaction, the remaining active coupling sites on chip surface were blocked by 420s injection of 1 mol/L ethanolamine hydrochloride.
(§4) The assay was performed at 25° C. and the running buffer was HBS-EP. Diluted antibodies were injected over the surface of flow cells 1 and 4 during the association phase, followed by injecting running buffer as the dissociation phase. All the data were processed using Biacore T200 Evaluation software version 3.1. Flow cell 1 and a blank injection of buffer in each cycle were used as a double reference for Response Units subtraction. Kinetic data of the interaction between the antibodies and CD70 antigen were obtained through affinity measurement.

For experiment [6], the target named is T2, CD70 ECD (antigen immobilized on the …). Briefly: SPR (Biacore T200), CD70 ECD on CM5 chip, IgG as analyte. The procedure:
as §3, §4

For experiment [7], the target named is T3, human CD70 recombinant protein (human, UniProt P32970 39-193, limits assumed).
T3 construct: May be the same reagent as ACRO CDL-H5246; also called CD70 protein
T3 sequence (looked up): T2 sequence (looked up)
Briefly: ELISA, IgG titrated on coated human CD70 recombinant protein (2 µg/ml), anti-human Fc-HRP, OD450. Here is the method: (§5) The binding specificity of the CD70 antibodies was tested by ELISA according to a standard protocol. Briefly, 96-well micro-plates were coated with 2 μg/ml of human or cynomolgus CD70 recombinant protein in PBS at 100 μl per well and incubated overnight at 4° C. The plates were washed twice with TBS+0.5% Tween20. 200 μL of blocking buffer (2% BSA in PBS) was added to each well, and the plates were incubated at 37° C. for 2 hours. The plates were washed using the wash buffer mentioned above. Serially diluted antibodies were added to the ELISA plates using 100 μl per well, and the plates were incubated for 1 hour at room temperature. Then plates were washed 3 times. HRP conjugated anti-human Fc antibody solution (Sigma, I18885-2ML, diluted with blocking buffer) was added to the plates using 100 μl per well. The plates were incubated at room temperature for 1 hour and then washed 3 times. Then the TMB solution was added to plates using 100 μl per well and the plates were placed at RT for 5-15 mins. Then the stop solution (2M H2SO4) was added using 50 μl per well. The absorbance was measured at A450 and A630.

Experiment [8] addresses T1, human CD70 expressed on the cell …. The experiment in a line: flow cytometry on U251 cells, PE anti-human Fc, MFI; same fit as Table 6, which prints it in nM. Here is the method:
as §1, §2

The target is the same in experiment [9]. The experiment in a line: flow cytometry on 786-O cells, PE anti-human Fc, MFI; same fit as Table 6, which prints it in nM. The procedure: as §1, §2
The target is the same in experiment [10]. The experiment in a line: flow cytometry on Caki-1 cells, PE anti-human Fc, MFI; same fit as Table 6, which prints it in nM. The procedure:
as §1, §2

Experiment [11] shares this target. Briefly: flow cytometry on DBTRG-05MG cells. The procedure:
as §1, §2

Experiment [12] has the same target. Briefly: flow cytometry on U251 cells. Here is the method: as §1, §2
Experiment [13] addresses T4, cynomolgus CD70 recombinant protein (cynomolgus, UniProt A0A2K5WTU9 39-190).
T4 construct: also called cyno-antigen; cynomolgus CD70 protein
T4 sequence: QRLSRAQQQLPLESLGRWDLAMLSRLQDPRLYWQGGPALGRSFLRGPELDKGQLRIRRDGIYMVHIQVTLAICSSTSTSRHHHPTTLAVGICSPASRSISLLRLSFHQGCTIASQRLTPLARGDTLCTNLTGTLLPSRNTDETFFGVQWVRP
The experiment in a line: ELISA, IgG titrated on coated cynomolgus CD70 recombinant protein (2 µg/ml), anti-human Fc-HRP, OD450. The procedure:
as §5

B1: 2A4P0L1, full IgG (antibody, V domains shown)
VH: QVQLQESGPGLVKPSETLSLTCTVSGGSVSSDYYYWSWIRQPPGKGLEWLGYIYYSGSTNYNPSLKSRVTISVDTSKNQFSLKLRSVTTADTAVYYCARGDGDYGGNVFPYWGQGTLVTVSS
VL: EIVLTQSPATLSLSPGERATLSCRASQSVSSYLAWYQQKPGQAPRLLIFDASNRATGIPARFSGSGSGTDFTLTISSLEPEDFAVYYCQQRLKFPLTFGGGTKVEIK
For B1, the “Internalization rate (%) on 786-O” value in experiment [1] was 61%. Also, the “Internalization rate (%) on Caki-1” value in experiment [1] came to 22%. For the same molecule, the EC50 in experiment [2] was 2.98 nM; in experiment [3] it was 0.876 µg/mL; in [4], 5.44 nM; in experiment [7], 0.263 µg/mL; in [8], 0.708 µg/mL; in experiment [9] it was 0.447 µg/mL. The half-maximal effective concentration (EC50) in experiment [10] turned out to be 0.816 µg/mL; in experiment [11], 5.84 nM; in experiment [12], 4.72 nM; in experiment [13], 0.00335 µg/mL. For the same molecule, the “fold improved affinity against parent antibody 69A7” value in experiment [5] fell in the range of 3 to 8 fold. Also, in experiment [6], the Kd was found to be 38.6 nM. Further, the off-rate (koff) in experiment [6] came to 0.00197 s⁻¹. This molecule registered a kon in experiment [6] of 51000 M⁻¹ s⁻¹.
